± gives the uncertainty stated by the source.
B1: TGF-beta-activated kinase 1 and MAP3K7-binding protein 3, residues 12 to 50; numbered along this chain, Q8N5C8 (parent)
chain: VLHDLRQRFPEIPEGVVSQCMLQNNNNLEACCRALSQES

Variants of: B1
Assay: abundance fitness (aPCA) (normalised: wild type 0, dead -1); higher = more abundant; growth selection in yeast, the domain comes from the species named
Settings: Homo sapiens

Question: Which abundance fitness does the source give for VLHDLRQRFPEIPEEVVSQCMLQNNNNLEACCRALSQES [G15E] here?
Answer: The abundance fitness was 0.281 ± 0.045.

Question: Which abundance fitness does the source give for VLHDLRQRFPEIPERVVSQCMLQNNNNLEACCRALSQES [G15R] here?
Answer: The abundance fitness was 0.074 ± 0.037.

Question: For VLHDLRQRFPEIPESVVSQCMLQNNNNLEACCRALSQES [G15S], which abundance fitness is on record?
Answer: Its abundance fitness is 0.122 ± 0.041.

Question: Which abundance fitness does the source give for VLHDLRQRFPEIPEFVVSQCMLQNNNNLEACCRALSQES [G15F] here?
Answer: Its abundance fitness is -0.138 ± 0.083.

Question: Which abundance fitness does the source give for VLHDLRQRFPEIPEHVVSQCMLQNNNNLEACCRALSQES [G15H] here?
Answer: Its abundance fitness is 0.25 ± 0.081.

Question: For VLHDLRQRFPEIPEVVVSQCMLQNNNNLEACCRALSQES [G15V], which abundance fitness is on record?
Answer: Its abundance fitness is -0.016 ± 0.037.

Question: With VLHDLRQRFPEIPEMVVSQCMLQNNNNLEACCRALSQES [G15M] as the variant, how does the abundance fitness read?
Answer: The abundance fitness was -0.079 ± 0.06.

Question: Which abundance fitness does the source give for VLHDLRQRFPEIPEKVVSQCMLQNNNNLEACCRALSQES [G15K] here?
Answer: The abundance fitness was 0.135 ± 0.056.

Question: Which abundance fitness does the source give for VLHDLRQRFPEIPEWVVSQCMLQNNNNLEACCRALSQES [G15W] here?
Answer: Its abundance fitness is 0.087 ± 0.039.

Question: With VLHDLRQRFPEIPEIVVSQCMLQNNNNLEACCRALSQES [G15I] as the variant, how does the abundance fitness read?
Answer: The abundance fitness was -0.154 ± 0.24.

Question: With VLHDLRQRFPEIPEYVVSQCMLQNNNNLEACCRALSQES [G15Y] as the variant, how does the abundance fitness read?
Answer: Its abundance fitness is 0.139 ± 0.065.

Question: For VLHDLRQRFPEIPEAVVSQCMLQNNNNLEACCRALSQES [G15A], which abundance fitness is on record?
Answer: Its abundance fitness is 0.153 ± 0.051.

Question: For VLHDLRQRFPEIPEPVVSQCMLQNNNNLEACCRALSQES [G15P], which abundance fitness is on record?
Answer: The abundance fitness was 0.003 ± 0.049.

Question: For VLHDLRQRFPEIPEDVVSQCMLQNNNNLEACCRALSQES [G15D], which abundance fitness is on record?
Answer: Its abundance fitness is 0.217 ± 0.058.

Question: Which abundance fitness does the source give for VLHDLRQRFPEIPECVVSQCMLQNNNNLEACCRALSQES [G15C] here?
Answer: Its abundance fitness is 0.03 ± 0.044.

Question: For VLHDLRQRFPEIPELVVSQCMLQNNNNLEACCRALSQES [G15L], which abundance fitness is on record?
Answer: Its abundance fitness is -0.162 ± 0.041.

Question: With VLHDLRQRFPEIPENVVSQCMLQNNNNLEACCRALSQES [G15N] as the variant, how does the abundance fitness read?
Answer: Its abundance fitness is 0.05 ± 0.059.

Question: Which abundance fitness does the source give for VLHDLRQRFPEIPEGFVSQCMLQNNNNLEACCRALSQES [V16F] here?
Answer: The abundance fitness was -0.71 ± 0.14.

Question: For VLHDLRQRFPEIPEGMVSQCMLQNNNNLEACCRALSQES [V16M], which abundance fitness is on record?
Answer: Its abundance fitness is -0.073 ± 0.052.

Question: For VLHDLRQRFPEIPEGRVSQCMLQNNNNLEACCRALSQES [V16R], which abundance fitness is on record?
Answer: Its abundance fitness is 0.032 ± 0.038.

Question: Which abundance fitness does the source give for VLHDLRQRFPEIPEGGVSQCMLQNNNNLEACCRALSQES [V16G] here?
Answer: The abundance fitness was -0.711 ± 0.059.

Question: Which abundance fitness does the source give for VLHDLRQRFPEIPEGEVSQCMLQNNNNLEACCRALSQES [V16E] here?
Answer: Its abundance fitness is -0.105 ± 0.056.

Question: For VLHDLRQRFPEIPEGKVSQCMLQNNNNLEACCRALSQES [V16K], which abundance fitness is on record?
Answer: Its abundance fitness is -0.114 ± 0.066.

Question: For VLHDLRQRFPEIPEGSVSQCMLQNNNNLEACCRALSQES [V16S], which abundance fitness is on record?
Answer: Its abundance fitness is -0.58 ± 0.074.

Question: Which abundance fitness does the source give for VLHDLRQRFPEIPEGTVSQCMLQNNNNLEACCRALSQES [V16T] here?
Answer: Its abundance fitness is -0.16 ± 0.073.

Question: With VLHDLRQRFPEIPEGAVSQCMLQNNNNLEACCRALSQES [V16A] as the variant, how does the abundance fitness read?
Answer: The abundance fitness was -0.297 ± 0.046.

Question: Which abundance fitness does the source give for VLHDLRQRFPEIPEGDVSQCMLQNNNNLEACCRALSQES [V16D] here?
Answer: Its abundance fitness is -0.264 ± 0.069.

Question: Which abundance fitness does the source give for VLHDLRQRFPEIPEGWVSQCMLQNNNNLEACCRALSQES [V16W] here?
Answer: The abundance fitness was -0.683 ± 0.061.

Question: With VLHDLRQRFPEIPEGQVSQCMLQNNNNLEACCRALSQES [V16Q] as the variant, how does the abundance fitness read?
Answer: The abundance fitness was -0.155 ± 0.053.

Question: For VLHDLRQRFPEIPEGYVSQCMLQNNNNLEACCRALSQES [V16Y], which abundance fitness is on record?
Answer: Its abundance fitness is 0.122 ± 0.32.

Question: For VLHDLRQRFPEIPEGNVSQCMLQNNNNLEACCRALSQES [V16N], which abundance fitness is on record?
Answer: Its abundance fitness is -0.552 ± 0.14.

Question: For VLHDLRQRFPEIPEGHVSQCMLQNNNNLEACCRALSQES [V16H], which abundance fitness is on record?
Answer: Its abundance fitness is -0.372 ± 0.2.

Question: With VLHDLRQRFPEIPEGPVSQCMLQNNNNLEACCRALSQES [V16P] as the variant, how does the abundance fitness read?
Answer: Its abundance fitness is -0.927 ± 0.17.

Question: Which abundance fitness does the source give for VLHDLRQRFPEIPEGLVSQCMLQNNNNLEACCRALSQES [V16L] here?
Answer: The abundance fitness was -0.228 ± 0.04.

Question: For VLHDLRQRFPEIPEGCVSQCMLQNNNNLEACCRALSQES [V16C], which abundance fitness is on record?
Answer: The abundance fitness was -0.638 ± 0.11.

Question: For VLHDLRQRFPEIPEGVRSQCMLQNNNNLEACCRALSQES [V17R], which abundance fitness is on record?
Answer: The abundance fitness was -0.836 ± 0.059.

Question: For VLHDLRQRFPEIPEGVSSQCMLQNNNNLEACCRALSQES [V17S], which abundance fitness is on record?
Answer: The abundance fitness was -0.815 ± 0.093.

Question: Which abundance fitness does the source give for VLHDLRQRFPEIPEGVISQCMLQNNNNLEACCRALSQES [V17I] here?
Answer: Its abundance fitness is 0.266 ± 0.056.

Question: For VLHDLRQRFPEIPEGVDSQCMLQNNNNLEACCRALSQES [V17D], which abundance fitness is on record?
Answer: Its abundance fitness is -0.624 ± 0.11.

Question: Which abundance fitness does the source give for VLHDLRQRFPEIPEGVASQCMLQNNNNLEACCRALSQES [V17A] here?
Answer: The abundance fitness was -0.647 ± 0.065.

Question: For VLHDLRQRFPEIPEGVFSQCMLQNNNNLEACCRALSQES [V17F], which abundance fitness is on record?
Answer: Its abundance fitness is -0.65 ± 0.26.

Question: With VLHDLRQRFPEIPEGVPSQCMLQNNNNLEACCRALSQES [V17P] as the variant, how does the abundance fitness read?
Answer: The abundance fitness was -0.568 ± 0.14.

Question: With VLHDLRQRFPEIPEGVMSQCMLQNNNNLEACCRALSQES [V17M] as the variant, how does the abundance fitness read?
Answer: The abundance fitness was -0.395 ± 0.15.

Question: With VLHDLRQRFPEIPEGVGSQCMLQNNNNLEACCRALSQES [V17G] as the variant, how does the abundance fitness read?
Answer: Its abundance fitness is -0.795 ± 0.055.

Question: Which abundance fitness does the source give for VLHDLRQRFPEIPEGVKSQCMLQNNNNLEACCRALSQES [V17K] here?
Answer: Its abundance fitness is -0.955 ± 0.14.

Question: Which abundance fitness does the source give for VLHDLRQRFPEIPEGVNSQCMLQNNNNLEACCRALSQES [V17N] here?
Answer: Its abundance fitness is -0.468 ± 0.46.

Question: For VLHDLRQRFPEIPEGVCSQCMLQNNNNLEACCRALSQES [V17C], which abundance fitness is on record?
Answer: The abundance fitness was -0.566 ± 0.1.

Question: For VLHDLRQRFPEIPEGVQSQCMLQNNNNLEACCRALSQES [V17Q], which abundance fitness is on record?
Answer: The abundance fitness was -0.81 ± 0.14.

Question: Which abundance fitness does the source give for VLHDLRQRFPEIPEGVHSQCMLQNNNNLEACCRALSQES [V17H] here?
Answer: Its abundance fitness is -0.7 ± 0.21.

Question: With VLHDLRQRFPEIPEGVLSQCMLQNNNNLEACCRALSQES [V17L] as the variant, how does the abundance fitness read?
Answer: Its abundance fitness is 0.084 ± 0.042.

Question: Which abundance fitness does the source give for VLHDLRQRFPEIVEGVVSQCMLQNNNNLEACCRALSQES [P13V] here?
Answer: Its abundance fitness is -0.774 ± 0.06.

Question: Which abundance fitness does the source give for VLHDLRQRFPEIMEGVVSQCMLQNNNNLEACCRALSQES [P13M] here?
Answer: Its abundance fitness is -0.517 ± 0.085.

Question: For VLHDLRQRFPEIGEGVVSQCMLQNNNNLEACCRALSQES [P13G], which abundance fitness is on record?
Answer: The abundance fitness was -0.666 ± 0.046.

Question: With VLHDLRQRFPEIDEGVVSQCMLQNNNNLEACCRALSQES [P13D] as the variant, how does the abundance fitness read?
Answer: The abundance fitness was -0.22 ± 0.074.

Question: Which abundance fitness does the source give for VLHDLRQRFPEICEGVVSQCMLQNNNNLEACCRALSQES [P13C] here?
Answer: The abundance fitness was -0.766 ± 0.082.

Question: With VLHDLRQRFPEIAEGVVSQCMLQNNNNLEACCRALSQES [P13A] as the variant, how does the abundance fitness read?
Answer: The abundance fitness was -0.513 ± 0.055.

Question: With VLHDLRQRFPEIKEGVVSQCMLQNNNNLEACCRALSQES [P13K] as the variant, how does the abundance fitness read?
Answer: Its abundance fitness is -0.51 ± 0.086.

Question: With VLHDLRQRFPEIREGVVSQCMLQNNNNLEACCRALSQES [P13R] as the variant, how does the abundance fitness read?
Answer: Its abundance fitness is -0.782 ± 0.063.

Question: For VLHDLRQRFPEIQEGVVSQCMLQNNNNLEACCRALSQES [P13Q], which abundance fitness is on record?
Answer: Its abundance fitness is -0.62 ± 0.15.

Question: Which abundance fitness does the source give for VLHDLRQRFPEITEGVVSQCMLQNNNNLEACCRALSQES [P13T] here?
Answer: The abundance fitness was -0.767 ± 0.092.

Question: Which abundance fitness does the source give for VLHDLRQRFPEIIEGVVSQCMLQNNNNLEACCRALSQES [P13I] here?
Answer: The abundance fitness was -0.452 ± 0.33.

Question: With VLHDLRQRFPEISEGVVSQCMLQNNNNLEACCRALSQES [P13S] as the variant, how does the abundance fitness read?
Answer: Its abundance fitness is -0.42 ± 0.051.

Question: Which abundance fitness does the source give for VLHDLRQRFPEIHEGVVSQCMLQNNNNLEACCRALSQES [P13H] here?
Answer: Its abundance fitness is -0.694 ± 0.14.

Question: For VLHDLRQRFPEIWEGVVSQCMLQNNNNLEACCRALSQES [P13W], which abundance fitness is on record?
Answer: The abundance fitness was -0.771 ± 0.088.

Source: the Human Domainome abundance scans (Beltran et al. 2025)
